In patent publication US20240376185A1 (SMIVET B V, published 2024):
Like-named read-outs stand apart in the source and are kept apart here.

Tests used:
human serum albumin [1] = biological target: T1, human serum albumin (human, UniProt P02768 25-609); assay: ELISA, coated albumin
T1 construct: mature; also called human Alb

sheep serum albumin = biological target: T2, sheep serum albumin (sheep, UniProt P14639 25-607); assay: ELISA, coated albumin
T2 construct: mature; also called sheep Alb

bovine serum albumin = biological target: T3, bovine serum albumin (bovine, UniProt P02769 25-607); assay: ELISA, coated albumin
T3 construct: mature; also called bovine Alb

chicken ovalbumin [2] = biological target: T4, chicken ovalbumin (chicken, UniProt P01012 2-386); assay: ELISA, coated albumin
T4 construct: mature; also called chicken Alb
T4 sequence (looked up): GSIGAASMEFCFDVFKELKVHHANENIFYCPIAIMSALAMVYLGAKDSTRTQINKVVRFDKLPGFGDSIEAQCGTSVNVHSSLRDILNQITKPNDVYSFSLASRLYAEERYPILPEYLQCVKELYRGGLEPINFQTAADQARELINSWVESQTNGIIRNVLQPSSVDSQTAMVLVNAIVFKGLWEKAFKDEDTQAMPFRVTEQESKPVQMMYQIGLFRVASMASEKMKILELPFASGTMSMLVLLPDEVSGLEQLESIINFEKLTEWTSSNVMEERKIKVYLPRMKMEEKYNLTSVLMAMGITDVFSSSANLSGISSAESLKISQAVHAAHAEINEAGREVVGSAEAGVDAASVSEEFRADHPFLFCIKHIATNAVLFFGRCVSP

dog serum albumin [3] = biological target: T5, dog serum albumin (dog, UniProt P49822 25-608); assay: ELISA, E. coli supernatant
T5 construct: mature; also called dog Alb; Canine albumin

human serum albumin [4] = biological target: T1, human serum albumin; assay: ELISA, E. coli supernatant
horse serum albumin = biological target: T6, horse serum albumin (horse, UniProt P35747 25-607); assay: ELISA, coated albumin, E. coli supernatant
T6 construct: mature; also called horse Alb; Equine albumin

dog serum albumin [5] = biological target: T5, dog serum albumin; assay: ELISA, coated albumin, E. coli supernatant
human serum albumin [6] = biological target: T1, human serum albumin; assay: ELISA, coated albumin, E. coli supernatant
mouse albumin [7] = biological target: T7, mouse albumin (mouse, UniProt P07724 25-608); assay: ELISA on coated albumin
swine albumin [8] = biological target: T8, swine albumin (swine, UniProt P08835 25-607); assay: ELISA on coated albumin
T8 construct: also called Porcine albumin

human albumin [9] = biological target: T9, human albumin (human, UniProt P02768 25-609); assay: ELISA on coated albumin
sheep albumin [10] = biological target: T10, sheep albumin (sheep, UniProt P14639 25-607); assay: ELISA on coated albumin
bovine albumin [11] = biological target: T11, bovine albumin (bovine, UniProt P02769 25-607); assay: ELISA on coated albumin
chicken ovalbumin [12] = biological target: T12, chicken ovalbumin (chicken, UniProt P01012 2-386); assay: ELISA on coated albumin
T12 construct: also called Chicken Alb
T12 sequence (looked up): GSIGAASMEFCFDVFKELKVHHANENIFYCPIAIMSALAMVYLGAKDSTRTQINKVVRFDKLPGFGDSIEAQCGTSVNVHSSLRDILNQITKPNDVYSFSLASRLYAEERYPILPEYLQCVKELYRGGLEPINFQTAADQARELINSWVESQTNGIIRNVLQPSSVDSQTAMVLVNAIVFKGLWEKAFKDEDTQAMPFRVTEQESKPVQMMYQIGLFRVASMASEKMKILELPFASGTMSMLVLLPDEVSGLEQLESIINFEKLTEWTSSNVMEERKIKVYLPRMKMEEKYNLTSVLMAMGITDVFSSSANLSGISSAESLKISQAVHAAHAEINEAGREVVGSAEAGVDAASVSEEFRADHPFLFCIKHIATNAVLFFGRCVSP

horse albumin [13] = biological target: T13, horse albumin (horse, UniProt P35747 25-607); assay: ELISA on coated albumin
T13 construct: also called Equine albumin

dog albumin [14] = biological target: T14, dog albumin (dog, UniProt P49822 25-608); assay: ELISA on coated albumin
T14 construct: also called Canine albumin

cat albumin [15] = biological target: T15, cat albumin (cat, UniProt P49064 25-608); assay: ELISA on cat albumin captured from serum
T15 construct: also called Feline albumin

mouse albumin [16] = biological target: T7, mouse albumin; assay: ELISA; A450 below 0.2 at highest SDA concentration
swine albumin [17] = biological target: T8, swine albumin; assay: ELISA; A450 below 0.2 at highest SDA concentration
cat albumin [18] = biological target: T15, cat albumin; assay: ELISA; A450 below 0.2 at highest SDA concentration
human albumin [19] = biological target: T9, human albumin; assay: ELISA; A450 below 0.2 at highest SDA concentration
sheep albumin [20] = biological target: T10, sheep albumin; assay: ELISA; A450 below 0.2 at highest SDA concentration
bovine albumin [21] = biological target: T11, bovine albumin; assay: ELISA; A450 below 0.2 at highest SDA concentration
chicken ovalbumin [22] = biological target: T12, chicken ovalbumin; assay: ELISA; A450 below 0.2 at highest SDA concentration
horse albumin [23] = biological target: T13, horse albumin; assay: ELISA; A450 below 0.2 at highest SDA concentration
dog albumin [24] = biological target: T14, dog albumin; assay: ELISA; A450 below 0.2 at highest SDA concentration
[25] = biological target: T16, Tetanus neurotoxin (TeNT), authentic tetanus holotoxin (Clostridium tetani, UniProt P04958 2-1315)
[26] = biological target: T16, Tetanus neurotoxin (TeNT), authentic …; remark: listed apart in the source
Horse albumin [27] = biological target: T17, Horse albumin (horse, UniProt P35747 25-607); assay: BLI (Octet Red96), biotinylated albumin on SA sensor, SDA as analyte
T17 construct: also called Equine albumin; Equine Alb

Human albumin [28] = biological target: Human albumin (human, UniProt P02768 25-609); assay: as above
Dog albumin [29] = biological target: T18, Dog albumin (dog, UniProt P49822 25-608); assay: BLI (Octet Red96), biotinylated SDA on SA sensor, albumin as analyte
T18 construct: also called Canine albumin; Canine Alb

[30] = biological target: T19, tetanus neurotoxin (TeNT), authentic tetanus holotoxin (Clostridium tetani, UniProt P04958 2-1315); assay: GT1b-TeNT inhibition ELISA
[31] = biological target: T19, tetanus neurotoxin (TeNT), authentic …; assay: GT1b-TeNT inhibition ELISA; remark: listed apart in the source
[32] = biological target: horse albumin (horse Alb) (horse, UniProt P35747 25-607); assay: BLI ([…] (0.11 nm), […] (0.01 nm)
[33] = biological target: T19, tetanus neurotoxin (TeNT), authentic …; assay: ELISA: directly coated TeNT, anti-his6 PO
[34] = biological target: T19, tetanus neurotoxin (TeNT), authentic …; assay: ELISA: directly coated TeNT, anti-his6 PO; remark: listed apart in the source
[35] = biological target: T19, tetanus neurotoxin (TeNT), authentic …; assay: ELISA: directly coated TeNT, goat anti-llama Ig PO
[36] = biological target: T19, tetanus neurotoxin (TeNT), authentic …; assay: ELISA: directly coated TeNT, goat anti-llama Ig PO; remark: listed apart in the source
[37] = biological target: T19, tetanus neurotoxin (TeNT), authentic …; assay: BLI (Octet Red96): biotinylated SDA on SA sensor, TeNT as analyte
[38] = biological target: T19, tetanus neurotoxin (TeNT), authentic …; assay: bridging ELISA: coated TeNT, SDA, biotinylated TeNT, StrepPO (bivalent binding)
[39] = biological target: T19, tetanus neurotoxin (TeNT), authentic …; assay: as above; remark: listed apart in the source

T14 sequence (P49822 25-608 limits assumed): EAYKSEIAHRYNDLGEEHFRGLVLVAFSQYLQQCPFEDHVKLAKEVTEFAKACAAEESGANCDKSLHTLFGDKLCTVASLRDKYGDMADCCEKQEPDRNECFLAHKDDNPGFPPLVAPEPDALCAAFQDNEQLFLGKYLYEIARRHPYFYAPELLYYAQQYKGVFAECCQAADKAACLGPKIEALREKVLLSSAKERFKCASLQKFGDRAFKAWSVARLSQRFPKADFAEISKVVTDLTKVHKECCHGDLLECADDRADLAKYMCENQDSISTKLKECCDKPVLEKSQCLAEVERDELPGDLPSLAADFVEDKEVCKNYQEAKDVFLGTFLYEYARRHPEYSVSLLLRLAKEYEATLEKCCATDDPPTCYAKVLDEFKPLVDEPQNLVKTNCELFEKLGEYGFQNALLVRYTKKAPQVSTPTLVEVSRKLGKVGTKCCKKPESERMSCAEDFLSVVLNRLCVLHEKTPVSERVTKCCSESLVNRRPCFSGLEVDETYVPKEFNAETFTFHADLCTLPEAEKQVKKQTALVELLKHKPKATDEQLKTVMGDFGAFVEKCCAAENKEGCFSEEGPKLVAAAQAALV
T7 sequence (P07724 25-608 limits assumed): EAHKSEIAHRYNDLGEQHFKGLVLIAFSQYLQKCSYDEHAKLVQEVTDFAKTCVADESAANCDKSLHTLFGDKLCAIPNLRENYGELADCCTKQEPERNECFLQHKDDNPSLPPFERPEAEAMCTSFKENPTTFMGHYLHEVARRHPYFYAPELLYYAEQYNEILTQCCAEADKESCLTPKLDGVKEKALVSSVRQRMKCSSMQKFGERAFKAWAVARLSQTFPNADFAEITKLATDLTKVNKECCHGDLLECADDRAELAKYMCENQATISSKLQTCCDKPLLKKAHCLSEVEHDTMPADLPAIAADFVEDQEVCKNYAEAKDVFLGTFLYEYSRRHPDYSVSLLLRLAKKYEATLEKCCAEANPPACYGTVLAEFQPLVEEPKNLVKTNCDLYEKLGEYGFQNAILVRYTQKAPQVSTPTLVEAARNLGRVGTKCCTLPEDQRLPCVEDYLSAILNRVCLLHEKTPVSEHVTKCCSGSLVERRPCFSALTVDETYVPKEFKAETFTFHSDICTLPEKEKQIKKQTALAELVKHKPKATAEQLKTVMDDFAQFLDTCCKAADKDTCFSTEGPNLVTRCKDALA
T10 sequence (P14639 25-607 limits assumed): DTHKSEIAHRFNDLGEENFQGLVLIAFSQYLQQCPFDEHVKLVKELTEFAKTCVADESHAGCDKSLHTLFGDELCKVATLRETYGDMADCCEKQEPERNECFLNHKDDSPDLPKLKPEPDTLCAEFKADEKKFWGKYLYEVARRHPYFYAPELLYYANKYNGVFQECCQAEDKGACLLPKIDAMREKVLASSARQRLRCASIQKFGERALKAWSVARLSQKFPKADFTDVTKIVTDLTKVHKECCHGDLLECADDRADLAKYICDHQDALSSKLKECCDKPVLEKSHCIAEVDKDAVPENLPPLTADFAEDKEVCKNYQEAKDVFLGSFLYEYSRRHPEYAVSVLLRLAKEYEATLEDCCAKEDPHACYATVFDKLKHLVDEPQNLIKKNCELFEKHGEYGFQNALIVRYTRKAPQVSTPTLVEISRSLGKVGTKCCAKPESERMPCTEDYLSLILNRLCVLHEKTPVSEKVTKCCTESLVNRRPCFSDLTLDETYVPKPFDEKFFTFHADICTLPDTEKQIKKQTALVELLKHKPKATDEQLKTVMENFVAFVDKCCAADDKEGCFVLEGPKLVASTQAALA
T16 sequence (P04958 2-457 limits assumed, chain 1 of 2): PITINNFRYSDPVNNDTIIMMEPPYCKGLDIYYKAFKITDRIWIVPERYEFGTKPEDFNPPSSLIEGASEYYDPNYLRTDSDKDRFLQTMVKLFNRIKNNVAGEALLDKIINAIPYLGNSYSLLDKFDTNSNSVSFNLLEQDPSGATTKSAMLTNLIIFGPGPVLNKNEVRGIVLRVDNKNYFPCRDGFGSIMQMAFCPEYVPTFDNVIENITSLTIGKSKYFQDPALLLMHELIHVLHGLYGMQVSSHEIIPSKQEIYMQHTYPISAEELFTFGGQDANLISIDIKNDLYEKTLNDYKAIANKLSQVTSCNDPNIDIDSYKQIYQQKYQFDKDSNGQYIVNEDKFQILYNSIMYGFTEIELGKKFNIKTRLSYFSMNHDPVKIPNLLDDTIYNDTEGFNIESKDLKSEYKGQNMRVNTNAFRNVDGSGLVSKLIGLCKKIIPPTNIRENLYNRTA
T16 sequence (P04958 458-1315 limits assumed, chain 2 of 2): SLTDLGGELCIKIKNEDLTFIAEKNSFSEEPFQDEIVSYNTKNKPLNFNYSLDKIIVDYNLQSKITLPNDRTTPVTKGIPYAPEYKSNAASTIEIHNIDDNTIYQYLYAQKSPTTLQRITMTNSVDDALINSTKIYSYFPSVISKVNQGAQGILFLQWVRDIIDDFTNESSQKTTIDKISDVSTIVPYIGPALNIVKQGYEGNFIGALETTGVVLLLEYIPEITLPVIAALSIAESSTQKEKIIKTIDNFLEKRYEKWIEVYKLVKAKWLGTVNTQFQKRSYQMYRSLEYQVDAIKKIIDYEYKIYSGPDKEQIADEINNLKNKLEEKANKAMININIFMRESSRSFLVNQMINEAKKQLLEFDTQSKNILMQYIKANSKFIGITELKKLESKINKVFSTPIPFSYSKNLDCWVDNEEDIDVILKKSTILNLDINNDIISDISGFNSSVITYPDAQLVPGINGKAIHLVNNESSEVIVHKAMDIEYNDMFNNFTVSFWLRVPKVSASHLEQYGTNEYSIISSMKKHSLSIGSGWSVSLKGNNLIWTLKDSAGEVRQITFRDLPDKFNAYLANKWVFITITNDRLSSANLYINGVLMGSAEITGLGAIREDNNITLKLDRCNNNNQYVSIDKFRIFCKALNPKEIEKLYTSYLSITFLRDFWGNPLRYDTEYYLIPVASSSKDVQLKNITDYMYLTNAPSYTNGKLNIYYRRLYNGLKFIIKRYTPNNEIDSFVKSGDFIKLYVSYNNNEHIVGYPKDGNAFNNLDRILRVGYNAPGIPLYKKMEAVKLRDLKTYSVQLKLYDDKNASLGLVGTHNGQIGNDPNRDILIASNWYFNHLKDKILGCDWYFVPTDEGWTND
T19 sequence (P04958 2-457 limits assumed, chain 1 of 2): as the sequence (P04958 2-457 limits assumed, chain 1 of 2) above
T19 sequence (P04958 458-1315 limits assumed, chain 2 of 2): as the sequence (P04958 458-1315 limits assumed, chain 2 of 2) above
T11 sequence (P02769 25-607 limits assumed): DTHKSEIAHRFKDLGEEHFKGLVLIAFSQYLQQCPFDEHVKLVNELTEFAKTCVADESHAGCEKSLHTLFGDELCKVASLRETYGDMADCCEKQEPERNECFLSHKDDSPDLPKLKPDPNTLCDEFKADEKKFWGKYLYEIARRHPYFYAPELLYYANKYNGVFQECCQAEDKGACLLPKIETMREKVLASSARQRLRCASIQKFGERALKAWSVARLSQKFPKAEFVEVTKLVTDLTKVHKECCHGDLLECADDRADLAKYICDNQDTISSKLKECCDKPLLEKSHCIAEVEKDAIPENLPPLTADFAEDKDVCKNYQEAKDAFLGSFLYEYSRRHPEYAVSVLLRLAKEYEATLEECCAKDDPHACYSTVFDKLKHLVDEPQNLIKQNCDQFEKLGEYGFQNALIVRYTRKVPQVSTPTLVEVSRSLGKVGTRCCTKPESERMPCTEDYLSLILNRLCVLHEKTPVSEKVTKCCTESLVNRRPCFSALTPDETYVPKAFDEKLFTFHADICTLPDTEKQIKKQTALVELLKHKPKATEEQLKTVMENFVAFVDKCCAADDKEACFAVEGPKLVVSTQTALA
T5 sequence (P49822 25-608): as the sequence (P49822 25-608 limits assumed) above

B1: SVA06L (VHH)
VHH: QVQLQESGGRLVQAEDSLRLSCAASGRTFVSYDMGWFRQAPGKEREFVAAINWRGYTTDYVDSVKGRFFISRDIAKSTVYLQMNNLKPEDTAVYYCAARQMSGSSRYSPPGRVGYDFWGQGTQVTVSS
notes: yeast-produced
binding result (human serum albumin [1]): no binding (tested: 1 µg/ml) | binding result (sheep serum albumin): no binding (tested: 1 µg/ml) | binding result (bovine serum albumin): no binding (tested: 1 µg/ml) | binding result (chicken ovalbumin [2]): no binding (tested: 1 µg/ml)

B2: SVA07 (VHH, not shown: large carriers)
VHH: QVQLQQSGGGLVQAGDSLRLSCAASGRAFNYYTMGWFRQAPGKEREFVAKIYWDGGSTIYADSVKGRFTISIDNAKNTVYLQMNSLKPEDTAVYYCAADPSFYPFRPKYWGQGTQVTVSS
binding result (dog serum albumin [3]): no binding | binding result (human serum albumin [4]): no binding | absorbance at 450 nm (horse serum albumin): 1.46 A450 | absorbance at 450 nm (dog serum albumin [5]): 0.059 A450 | absorbance at 450 nm (human serum albumin [6]): 0.062 A450

B3: SVT06L (VHH)
VHH: QVQLQESGGGSVQAGGSLRLSCTASELSYDDYTIAWFRRAAGEGRVEDGEGVASITKSYDRAYDNKINYGHSVKGRFTISRDNAKNTVYLQMTDLLPSDTAVYYCALDITPPGGVGASLTEGFLFDYWGQGTQVTVSS
SDA Effective Concentration resulting in A450 nm = 0.2 (mouse albumin [7]): > 1000 ng/mL | maximal absorbance value at 450 nm (mouse albumin [7]): 0.073 A450 | SDA Effective Concentration resulting in A450 nm = 0.2 (swine albumin [8]): > 1000 ng/mL | maximal absorbance value at 450 nm (swine albumin [8]): 0.08 A450 | SDA Effective Concentration resulting in A450 nm = 0.2 (human albumin [9]): > 1000 ng/mL | maximal absorbance value at 450 nm (human albumin [9]): 0.065 A450 | SDA Effective Concentration resulting in A450 nm = 0.2 (sheep albumin [10]): > 1000 ng/mL | maximal absorbance value at 450 nm (sheep albumin [10]): 0.06 A450 | SDA Effective Concentration resulting in A450 nm = 0.2 (bovine albumin [11]): > 1000 ng/mL | maximal absorbance value at 450 nm (bovine albumin [11]): 0.051 A450 | SDA Effective Concentration resulting in A450 nm = 0.2 (chicken ovalbumin [12]): > 1000 ng/mL | maximal absorbance value at 450 nm (chicken ovalbumin [12]): 0.057 A450 | SDA Effective Concentration resulting in A450 nm = 0.2 (horse albumin [13]): > 1000 ng/mL | maximal absorbance value at 450 nm (horse albumin [13]): 0.056 A450 | SDA Effective Concentration resulting in A450 nm = 0.2 (dog albumin [14]): > 1000 ng/mL | maximal absorbance value at 450 nm (dog albumin [14]): 0.053 A450 | maximal absorbance value at 450 nm (cat albumin [15]): 0.099 A450 | binding result (mouse albumin [16]): no binding (tested: 1000 ng/ml) | binding result (swine albumin [17]): no binding (tested: 1000 ng/ml) | binding result (cat albumin [18]): no binding (tested: 1000 ng/ml) | binding result (human albumin [19]): no binding (tested: 1000 ng/ml) | binding result (sheep albumin [20]): no binding (tested: 1000 ng/ml) | binding result (bovine albumin [21]): no binding (tested: 1000 ng/ml) | binding result (chicken ovalbumin [22]): no binding (tested: 1000 ng/ml) | binding result (horse albumin [23]): no binding (tested: 1000 ng/ml) | binding result (dog albumin [24]): no binding (tested: 1000 ng/ml)

B4: SVT15-3FW4M-GS3-SVT06-GS2-SVG13M5-H6 (bispecific antibody)
chain: QVQLQESGGGLVQTGGSLRLSCRASGRAFANYHFGWFRQAPGKDREFVASISWKGGSTYYANFALGRFTSSVDRAESSVYLQMSGLTPEDTATYYCAAHDGGDWNYHTGMDYWGQGTQVTVSSGGGGSGGGGSGGGGSQVQLQESGGGSVQAGGSLRLSCTASELSYDDYTIAWFRRAAGEGRVEDGEGVASITKSYDRAYDNKINYGHSVKGRFTISRDNAKNTVYLQMTDLLPSDTAVYYCALDITPPGGVGASLTEGFLFDYWGQGTQVTVSSGGGGSGGGSEVQLVESGGGLVQPGGSLRLSCEASGFTFDDYGMSWVRQAPGKGLEWVSSLTPNGGSTYYADSVKGRFTISRDNAKNTLYLQMNSLKPEDTALYYCAKNSYYGAMDYRGQGTQVTVSSHHHHHH
Kd [25]: < 0.00041 nM | koff [25]: < 1.99e-07 s⁻¹ | kon [25]: 484000 M⁻¹ s⁻¹ | Kd [26]: 0.0229 nM | koff [26]: 2.73e-05 s⁻¹ | kon [26]: 1.19e+06 M⁻¹ s⁻¹ | binding result (Horse albumin [27]): no binding (tested: 100 nM) | binding result (Human albumin [28]): no binding (tested: 100 nM) | binding result (Dog albumin [29]): no binding (tested: 16-500 nM)

B5: SVT16L (VHH)
VHH: QVQLQESGGGSVQAGDSLRLSCAASGRTISNYAMGWFRQAPGKQREFVAAISRSDNTYYTDSVKGRFTISRDNAKNTLYLQMNSLKPEETAVYYCAADPNLMYESKWKYRALEAWGQGTLVTVSS
minimal absorbance value (GT1b-TeNT inhibition) [30]: 0.18 A450 | Effective SDA Concentration at A450 0.56 [31]: 21 ng/mL | binding result [32]: no binding (tested: 100 nM) | maximal absorbance value [33]: 1.56 A450 | Effective SDA Concentration at A450 0.15 [34]: 1.4 ng/mL | maximal absorbance value [35]: 0.44 A450 | Effective SDA Concentration at A450 0.15 [36]: 5 ng/mL | Kd [37]: 0.339 nM | koff [37]: 0.000311 s⁻¹ | kon [37]: 916000 M⁻¹ s⁻¹ | maximal absorbance value [38]: 0.18 A450 | Effective SDA Concentration at A450 0.3 [39]: > 1000 ng/mL
